Where a chain is given by its changes, count along the chain named. Names and notes keep the numbering of the source.
B1: Ptc^CTD (C-terminal tail of Ptc) expressed in S2 cells (domain or fragment, Drosophila, UniProt P18502 1101-1286, looked up)
chain: ILLSMVGPEAELVPLEHPDRISTPSPLPVRSSKRSGKSYVVQGSRSSRGSCQKSHHHHHKDLNDPSLTTITEEPQSWKSSNSSIQMPNDWTYQPREQRPASYAAPPPAYHKAAAQQHHQHQGPPTTPPPPFPTAYPPELQSIVVQPEVTVETTHSDSNTTKVTATANIKVELAMPGRAVRSYNFTS
notes: Patched (Ptc), Drosophila, C-terminal tail; also called C-tail of Ptc; Ptc C-tail; source: S2 cells, transfected, in lysate
B2: Ptc^CTD with the K1261R mutation, in S2 cells (domain or fragment, Drosophila, UniProt P18502 1101-1286, looked up)
chain: B1 chain with K161R
notes: Patched (Ptc), Drosophila, C-terminal domain with K1261R; source: S2 cells, transfected, in lysate
B3: GST:Flag:Ptc^CTD fusion protein (domain or fragment, Drosophila, UniProt P18502 1101-1286, looked up)
chain: B1 chain
notes: Patched (Ptc), Drosophila, C-terminal domain, residues 1101-1286; Vector pGEX4T-1; also called Flag tagged Ptc^CTD (1101-1286 a.a) in pGEX4T-1; source: E. coli, purified (glutathione agarose beads, batch)

Columns and labels:
[1] = target: the molecule itself; assay: native gel or EMSA; lysates of S2 cells transfected for 48 h; native polyacrylamide gel and Western blot
[2] = target: T1, His:Smurf protein (full length Drosophila Smurf) (Drosophila, UniProt Q9V853 1-1061); assay: pull-down; GST fusion protein loaded glutathione beads incubated with 200 ng purified His:Smurf; 50 mM Tris-Cl pH 8.0, 200 mM NaCl, 1 mM EDTA, 1% NP-40, 2% BSA, 10 mM DTT, 1 mM PMSF; 4°C, 1 h; Western blot; details: both partners purified
T1 construct: Smurf E3 ligase, Drosophila, full length; Vector pET28a; also called Smurf in pET28a; source: E. coli, purified (Ni Sepharose)
T1 sequence (looked up): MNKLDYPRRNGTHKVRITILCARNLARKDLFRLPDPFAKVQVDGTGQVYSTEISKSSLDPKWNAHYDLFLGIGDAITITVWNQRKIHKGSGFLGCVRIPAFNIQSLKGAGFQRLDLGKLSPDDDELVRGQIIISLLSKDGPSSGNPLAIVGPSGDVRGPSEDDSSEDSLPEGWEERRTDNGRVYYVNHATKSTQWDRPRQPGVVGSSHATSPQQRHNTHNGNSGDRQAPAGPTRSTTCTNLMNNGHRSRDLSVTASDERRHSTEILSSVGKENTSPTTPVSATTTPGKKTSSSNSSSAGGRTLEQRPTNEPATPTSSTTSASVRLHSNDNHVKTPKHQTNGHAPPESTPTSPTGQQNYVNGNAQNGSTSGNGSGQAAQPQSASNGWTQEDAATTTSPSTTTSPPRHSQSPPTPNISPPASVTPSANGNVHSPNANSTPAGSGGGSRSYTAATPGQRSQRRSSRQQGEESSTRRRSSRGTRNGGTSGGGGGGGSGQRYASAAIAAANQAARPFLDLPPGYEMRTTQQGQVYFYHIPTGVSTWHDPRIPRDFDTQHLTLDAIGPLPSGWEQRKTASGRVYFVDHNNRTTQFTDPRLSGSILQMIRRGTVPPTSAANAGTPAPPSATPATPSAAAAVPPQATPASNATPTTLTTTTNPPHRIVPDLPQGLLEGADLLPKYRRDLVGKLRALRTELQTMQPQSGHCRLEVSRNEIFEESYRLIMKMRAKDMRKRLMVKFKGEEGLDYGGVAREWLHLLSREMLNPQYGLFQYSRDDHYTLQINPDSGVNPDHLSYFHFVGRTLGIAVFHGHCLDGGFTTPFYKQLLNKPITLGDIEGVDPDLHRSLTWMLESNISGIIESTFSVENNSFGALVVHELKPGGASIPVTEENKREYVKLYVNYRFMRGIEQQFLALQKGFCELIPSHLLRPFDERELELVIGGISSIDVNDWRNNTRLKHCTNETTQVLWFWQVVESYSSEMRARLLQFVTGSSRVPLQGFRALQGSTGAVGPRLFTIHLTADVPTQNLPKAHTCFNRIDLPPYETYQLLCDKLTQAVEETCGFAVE

Binder | stoichiometry N [1] | binding result [2]
B1 | 3 | –
B2 | 3 | –
B3 | – | binds
